Measurements as given in patent US20200377587A1 (NANTBIO, published 2020).
Where “and” joins values, the source holds several entries; their conditions need not be identical. Equal entries are not always repeated.

T1: IL-8 (UniProt P10145 28-99, limits assumed)
T1 construct: also called Interleukin-8; immobilized IL-8
T1 sequence (looked up): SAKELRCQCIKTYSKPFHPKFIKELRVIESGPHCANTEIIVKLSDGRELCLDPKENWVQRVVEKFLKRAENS

B1: scFv 49-18 (scFv, V domains shown)
VH: EVQLVESGGGLVQPGGSLRLSCAASGFTFSSYAMNWVRQAPGKGLEWVSAISWSGGNTYYADSVKGRFTISRDNSKNTLYLQMNSLRAEDTAVYYCARDLYAGYWGFDVWGQGTLVTVSS
VL: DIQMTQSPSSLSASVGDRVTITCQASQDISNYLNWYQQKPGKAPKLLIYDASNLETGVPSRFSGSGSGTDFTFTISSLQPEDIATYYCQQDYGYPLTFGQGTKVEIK
notes: also called Clone 49-18
B2: recombinant antibody (IgG1) 43-2 (antibody, V domains shown)
VH: EVQLVESGGGLVQPGGSLRLSCAASGFTFSSYAMHWVRQAPGKGLEWVSAISGSGGKTYYADSVKGRFTISRDNSKNTLYLQMNSLRAEDTAVYYCARDREAPFYTVYVTGFDVWGQGTLVTVSS
VL: DIQMTQSPSSLSASVGDRVTITCQASQDISNYLNWYQQKPGKAPKLLIYDASNLETGVPSRFSGSGSGTDFTFTISSLQPEDIATYYCQQDADTPLTFGQGTKVEIK
notes: IgG1 ('corresponding humanized IgG1'); also called 43-2 IgG1; Clone 43-2
B3: scFv 49-34 (scFv, V domains shown)
VH: EVQLVESGGGLVQPGGSLRLSCAASGFTLGSYAMHWVRQAPGKGLEWVSAISGSGGSTYYADSVKGRFTISRDNSKNTLYLQMNSLRAEDTAVYYCARDRDTVSIEVGFDVWGQGTLVTVSS
VL: DIQMTQSPSSLSASVGDRVTITCQASQDISNYLNWYQQKPGKAPKLLIYDASNLETGVPSRFSGSGSGTDFTFTISSLQPEDIATYYCQQDSAFPLTFGQGTKVEIK
notes: also called Clone 49-34
B4: recombinant antibody (IgG1) 49-31 (antibody, V domains shown)
VH: EVQLVESGGGLVQPGGSLRLSCAASGFTFSSYYMHWVRQAPGKGLEWVSAISGGGSSTYYADSVKGRFTISRDNSKNTLYLQMNSLRAEDTAVYYCARDLRIFEGRDAGFDVWGQGTLVTVS
VL: DIQMTQSPSSLSASVGDRVTITCQASQDISNYLNWYQQKPGKAPKLLIYDASNLETGVPSRFSGSGSGTDFTFTISSLQPEDIATYYCQQDDDVPWTFGQGTKVEIK
notes: IgG1 ('corresponding humanized IgG1'); also called 49-31 IgG1; Clone 49-31
B5: scFv 43-2 (scFv, V domains shown)
VH: EVQLVESGGGLVQPGGSLRLSCAASGFTFSSYAMHWVRQAPGKGLEWVSAISGSGGKTYYADSVKGRFTISRDNSKNTLYLQMNSLRAEDTAVYYCARDREAPFYTVYVTGFDVWGQGTLVTVSS
VL: DIQMTQSPSSLSASVGDRVTITCQASQDISNYLNWYQQKPGKAPKLLIYDASNLETGVPSRFSGSGSGTDFTFTISSLQPEDIATYYCQQDADTPLTFGQGTKVEIK
notes: also called Clone 43-2
B6: scFv 49-22 (scFv, V domains shown)
VH: EVQLVESGGGLVQPGGSLRLSCAASGFTFTSYAMHWVRQAPGKGLEWVSAISGSGGSTYYADSVKGRFTISRDNSKNTLYLQMNSLRAEDTAVYYCARDLDMFVPFWPAFDVWGQGTLVTVSS
VL: DIQMTQSPSSLSASVGDRVTITCQASQDISNYLNWYQQKPGKAPKLLIYDASNLETGVPSRFSGSGSGTDFTFTISSLQPEDIATYYCQQASDTPLTFGQGTKVEIK
notes: also called Clone 49-22
B7: scFv 49-3 (scFv, V domains shown)
VH: EVQLVESGGGLVQPGGSLRLSCAASGFTFSSYAMTWVRQAPGKGLEWVSVISGSGGSTRYADSVKGRFTISRDNSKNTLYLQMNSLRAEDTAVYYCARDRKFPYVQFFRNGFDVWGQGTLVTVSS
VL: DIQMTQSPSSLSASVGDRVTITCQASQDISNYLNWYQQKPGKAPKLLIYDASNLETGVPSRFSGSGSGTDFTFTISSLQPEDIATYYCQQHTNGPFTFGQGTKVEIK
notes: also called Clone 49-3
B8: IgG1 49-3 (antibody, V domains shown)
VH: EVQLVESGGGLVQPGGSLRLSCAASGFTFSSYAMTWVRQAPGKGLEWVSVISGSGGSTRYADSVKGRFTISRDNSKNTLYLQMNSLRAEDTAVYYCARDRKFPYVQFFRNGFDVWGQGTLVTVSS
VL: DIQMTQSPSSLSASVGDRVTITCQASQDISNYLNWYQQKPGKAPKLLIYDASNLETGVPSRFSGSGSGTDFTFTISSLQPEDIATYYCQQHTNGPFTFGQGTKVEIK
notes: also called 49-3 IgG1; Clone 49-3
B9: scFv 43-12b (scFv, V domains shown)
VH: EVQLVESGGGLVQPGGSLRLSCAASGFTFSSYLMHWVRQAPGKGLEWVSAISGSGGITYYADSVKGRFTISRDNSKNTLYLQMNSLRAEDTAVYYCARDREGWFWHSYGFDVWGQGTLVTVSS
VL: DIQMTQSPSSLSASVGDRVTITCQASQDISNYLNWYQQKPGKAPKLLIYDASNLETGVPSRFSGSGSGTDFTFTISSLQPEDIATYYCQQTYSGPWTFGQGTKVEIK
notes: Derived from 43-12 by random mutagenesis of the CDRs and mRNA display
B10: recombinant antibody (IgG1) 43-12 (antibody, V domains shown)
VH: EVQLVESGGGLVQPGGSLRLSCAASGFTFSSYLMHWVRQAPGKGLEWVSAISGSGGSTYYADSVKGRFTISRDNSKNTLYLQMNSLRAEDTAVYYCARDREGWFWHSYGFDVWGQGTLVTVSS
VL: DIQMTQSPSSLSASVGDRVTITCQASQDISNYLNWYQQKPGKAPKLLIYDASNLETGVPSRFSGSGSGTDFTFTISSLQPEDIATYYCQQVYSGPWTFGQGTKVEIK
notes: IgG1 ('corresponding humanized IgG1'); also called 43-12 IgG1; Clone 43-12
B11: scFv 49-32 (scFv, V domains shown)
VH: EVQLVESGGGLVQPGGSLRLSCAASGFTFSSYAMHWVRQAPGKGLEWVSAIYGNGGSTYYADSVKGRFTISRDNSKNTLYLQMNSLRAEDTAVYYCARDLYTIEPREAFDVWGQGTLVTVSS
VL: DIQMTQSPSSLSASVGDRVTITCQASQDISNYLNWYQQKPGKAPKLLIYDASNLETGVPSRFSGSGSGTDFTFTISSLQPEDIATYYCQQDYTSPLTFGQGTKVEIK
notes: also called Clone 49-32
B12: IgG1 49-32 (antibody, V domains shown)
VH: EVQLVESGGGLVQPGGSLRLSCAASGFTFSSYAMHWVRQAPGKGLEWVSAIYGNGGSTYYADSVKGRFTISRDNSKNTLYLQMNSLRAEDTAVYYCARDLYTIEPREAFDVWGQGTLVTVSS
VL: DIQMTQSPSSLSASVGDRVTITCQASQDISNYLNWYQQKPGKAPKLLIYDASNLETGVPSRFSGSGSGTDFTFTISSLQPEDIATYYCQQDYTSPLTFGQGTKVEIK
notes: also called 49-32 IgG1; Clone 49-32
B13: scFv 49-7 (scFv, V domains shown)
VH: EVQLVESGGGLVQPGGSLRLSCAASGFTFSSYAMHWVRQAPGKGLEWVSAISNSGASTYYADSVKGRFTISRDNSKNTLYLQMNSLRAENTAVYYCARDLMRWWIDGFDVWGQGTLVTVSS
VL: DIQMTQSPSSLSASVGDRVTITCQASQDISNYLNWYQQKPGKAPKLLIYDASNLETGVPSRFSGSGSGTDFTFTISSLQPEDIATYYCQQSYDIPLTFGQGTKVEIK
notes: also called Clone 49-7

Key:
IL-8 [1] = target: T1, IL-8; assay: SPR, immobilized IL-8, scFv, 25 C
Description: (§1) Here, scFv and corresponding humanized IgG₁ were prepared using the sequences as indicated, and KD was determined using SPR with immobilized IL-8 as […] on the chip surface. All values are expressed as nanoM values at temperatures as indicated.

IL-8 [2] = target: T1, IL-8; assay: SPR, immobilized IL-8, IgG, 37 C
Description: as §1

IL-8 [3] = target: T1, IL-8; assay: SPR, immobilized IL-8, IgG1, 25 C
Description: as §1

IL-8 [4] = target: T1, IL-8; assay: SPR, IgG1, 25 C, pH 7.4, preliminary KD
From the text: (§2) The inventors contemplate that the binding affinities of the scFv, recombinant antibody or fragment thereof, to IL-8 may be different due to the structural differences even if the scFv, recombinant antibody or fragment thereof, are generated using the same amino acid sequences of VH segment and/or VL segments. For example, Table 2 provides different affinities (measured in KD value) of scFv and recombinant antibody (IgG1) of several clones. Clone 49-31 is a scFv or a recombinant antibody (IgG1) generated using amino acid sequences encoding VH segment (SEQ ID No. 1) and VL segment (SEQ ID No. 16), Clone 43-2 is a scFv or a recombinant antibody (IgG1) generated using amino acid sequences encoding VH segment (SEQ ID No. 8) and VL segment (SEQ ID No. 23), and Clone 43-12 is a scFv or a recombinant antibody (IgG1) generated using amino acid sequences encoding VH segment (SEQ ID No.10) and VL segment (SEQ ID No. 25). Preliminary KD values are determined by surface plasmon resonance measurement, and highest and lowest values are shown to estimate the range of the affinities to IL-8.

IL-8 [5] = target: T1, IL-8; assay: SPR, IgG1, 37 C, pH 7.4, preliminary KD, lowest and highest value
From the text: as §2

IL-8 [6] = target: T1, IL-8; assay: SPR, IgG1, 37 C, pH 7.4, preliminary KD; IgG1, 37 C, pH 7.4
From the text: as §2

IL-8 [7] = target: T1, IL-8; assay: SPR, IgG1, 25 C, pH 6.0, preliminary KD, lowest and highest value
From the text: as §2

IL-8 [8] = target: T1, IL-8; assay: SPR, IgG1, 25 C, pH 7.4, preliminary KD, lowest and highest value; lowest value of the range; IgG1, 25 C, pH 7.4
From the text: as §2

IL-8 [9] = target: T1, IL-8; assay: SPR, scFv, preliminary KD
From the text: as §2

IL-8 [10] = target: T1, IL-8; assay: SPR, lower panel; no pH label is printed on this sheet (the lower panel of Fig.4A is pH6.0; the text names pH 7.4 and pH 6.0)
Description: (§3) In yet another set of experiments, the inventors used affinity maturation (here: random mutagenesis of CDR regions in VH and VL chains and mRNA display selection) of one previously identified IL-8 binder (here: 43-12, sequence in Table 1), and SPR analysis was performed on selected mutant forms using two different pH conditions, pH 7.4 and pH 6.0.

IL-8 [11] = target: T1, IL-8; assay: SPR, upper panel; no pH label is printed on this sheet (the upper panel of Fig.4A is pH7.4; the text names pH 7.4 and pH 6.0)
Description: as §3

IL-8 [12] = target: T1, IL-8; assay: SPR, IgG1, 37 C, pH 7.4, preliminary KD
From the text: as §2

IL-8 [13] = target: T1, IL-8; assay: SPR, IgG1, 25 C, pH 7.4, preliminary KD, lowest and highest value
From the text: as §2

| Binder | Kd (IL-8 [1]) | Kd (IL-8 [2]) | Kd (IL-8 [3]) | also measured |
| --- | --- | --- | --- | --- |
| B1 | 0.41 to 0.89 nM | – | – | – |
| B2 | – | 0.72 to 0.89 nM | 0.79 nM | Kd (IL-8 [4]): 0.79 nM; Kd (IL-8 [5]): 0.72 nM and 0.89 nM |
| B3 | 0.44 to 0.62 nM | – | – | – |
| B4 | – | 0.12 nM | 0.099 to 0.25 nM | Kd (IL-8 [6]): 0.117 nM; Kd (IL-8 [7]): 0.21 to 0.22 nM; Kd (IL-8 [8]): 0.009 to 0.25 nM |
| B5 | 1.41 nM | – | – | Kd (IL-8 [9]): 1.41 nM |
| B6 | 0.11 to 0.114 nM | – | – | – |
| B7 | 1.26 nM | – | – | – |
| B8 | – | 9.19 nM | 2.14 nM | – |
| B9 | – | – | – | Kd (IL-8 [10]): 2.3 nM; koff (IL-8 [10]): 0.00076 s⁻¹; kon (IL-8 [10]): 330000 M⁻¹ s⁻¹; Kd (IL-8 [11]): 2 nM; koff (IL-8 [11]): 0.0002 s⁻¹; kon (IL-8 [11]): 100000 M⁻¹ s⁻¹ |
| B10 | – | 0.31 nM | 0.43 to 0.78 nM | Kd (IL-8 [12]): 0.31 nM; Kd (IL-8 [7]): 3.46 to 6.7 nM; Kd (IL-8 [13]): 0.43 to 0.78 nM |
| B11 | 0.21 to 0.24 nM | – | – | – |
| B12 | – | 0.33 to 0.36 nM | 0.77 to 0.87 nM | – |
| B13 | 0.087 to 0.17 nM | – | – | – |
